Values belong to the binder of their own block, whether it stands above or below them.
Experiments:
Test in all cases: pull-down
c/Nip1-His Box12-WWPW = c/Nip1-His Box12-WWPW (S. cerevisiae, UniProt P32497 1-812, V111W | V112W | K116P | K118W)
c/Nip1-His Box15-2 = c/Nip1-His Box15-2 (S. cerevisiae, UniProt P32497 1-812, I142V | E145W | F146T | D147L | I149R)
[1] = target: c/Nip1-His GAP85 (Δ60–144) (S. cerevisiae, UniProt P32497 1-812, Δ60–144)
GST-eIF1 = GST-eIF1 (S. cerevisiae, UniProt P32911 1-108)
GST-eIF1, sequence (P32911 whole entry): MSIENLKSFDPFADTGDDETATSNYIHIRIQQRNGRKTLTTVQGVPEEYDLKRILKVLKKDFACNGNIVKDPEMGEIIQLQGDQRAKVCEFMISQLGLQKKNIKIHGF

reduction of eIF5 associated in vivo, relative to WT c/Nip1-His (c/Nip1-His Box12-WWPW): ~30% | reduction of eIF5 associated in vivo, relative to WT c/Nip1-His (c/Nip1-His Box15-2): > 60% | reduction of eIF5 associated in vivo, relative to WT c/Nip1-His [1]: > 60%
B1: eIF5 (natural protein)
chain: MSINICRDNHDPFYRYKMPPIQAKVEGRGNGIKTAVLNVADISHALNRPAPYIVKYFGFELGAQTSISVDKDRYLVNGVHEPAKLQDVLDGFINKFVLCGSCKNPETEIIITKDNDLVRDCKACGKRTPMDLRHKLSSFILKNPPDSVSGSKKKKKAATASANVRGGGLSISDIAQGKSQNAPSDGTGSSTPQHHDEDEDELSRQIKAAASTLEDIEVKDDEWAVDMSEEAIRARAKELEVNSELTQLDEYGEWILEQAGEDKENLPSDVELYKKAAELDVLNDPKIGCVLAQCLFDEDIVNEIAEHNAFFTKILVTPEYEKNFMGGIERFLGLEHKDLIPLLPKILVQLYNNDIISEEEIMRFGTKSSKKFVPKEVSKKVRRAAKPFITWLETAESDDDEEDDE

fold increase in binding relative to the WT c/Nip1-NTD (GST-eIF1): ~2 fold
B2: c/Nip1-NTD (1–270) Box12-SPW (domain or fragment)
chain: MSRFFSSNYEYDVASSSSEEDLLSSSEEDLLSSSSSESELDQESDDSFFNESESESEADVDSDDSDAKPYGPDWFKKSEFRKQGGGSNKFLKSSNYDSSDEESDEEDGKKVVSSAPEWLLDEMQDVYNKISQAENSDDWLTISNEFDLISRLLVRAQQQNWGTPNIFIKVVAQVEDAVNNTQQADLKNKAVARAYNTTKQRVKKVSRENEDSMAKFRNDPESFDKEPTADLDISANGFTISSSQGNDQAVQEDFFTRLQTIIDSRGKKTV
modifications: 35S-labeled

— PMC3436577 (The Journal of Biological Chemistry, 2012)
